The source of these data is paper PMC4231161.

The target in assay [1] is myosin light chain 1 (MLC1) (Toxoplasma gondii (endogenous in tachyzoites)). Kind of assay: co-IP; polyclonal anti-MLC1 or anti-GAP45 antibodies on [35S]-labelled wild type (RH) and MyoA-KO parasites and on MyoA-iKO parasites +/- ATc, Triton X-100 lysate, autoradiography, bands quantified with ImageJ.
Assay [2] has as its target gliding-associated protein GAP45 (Toxoplasma gondii (endogenous in tachyzoites)) (UniProt Q7Z289). The description is as above.

Turning to myosin C (MyoC) (natural protein), the more MyoC co-precipitated in the absence of MyoA than in its presence in assay [1] and in assay [2] was 50% in each case.
